Substitutions are numbered along the chain they refer to. Numbers in names are those of the source.
B1: 2D9: phage clone displaying β2GPI domain 1 mutant T3P (protein)
chain: GRPCPKPDDLPFSTVVPLKTFYEPGEEITYSCKPGYVSRGGMRKFICPLTGLWPINTLKCTPRVAEPVESCLAKPHTENSFTNVWKDDKTLDRYANYEGCLWNATGVVVCTGDETQCYGTWVPIGLAIPENEGGGSEGGGSEGGGSEGGGTKPPEYGDTPIPGYTYINPLDGTYPPGTEQNPANPNPSLEESQPLNTFMFQNNRFRNRQGALTVYTGTVTQGTDPVKTYYQYTPVSSKAMYDAYWNGKFRDCAFHSGFNEDPFVCEYQGQSSDLPQPPVNAGGGSGGGSGGGSEGGGSEGGGSEGGGSEGGGSGGGSGSGDFDYEKMANANKGAMTENADENALQSDAKGKLDSVATDYGAAIDGFIGDVSGLANGNGATGDFAGSNSQMAQVGDGDNSPLMNNFRQYLPSLPQSVECRPYVFGAGKPYEFSIDCDKINLFRGVFAFLLYVATFMYVFSTFANILRNKES
B2: B11: phage clone, domain 1 mutant M42K (protein)
chain: GRTCPKPDDLPFSTVVPLKTFYEPGEEITYSCKPGYVSRGGKRKFICPLTGLWPINTLKCTPRV
B3: 2C3: phage clone, domain 1 mutant P54S (protein)
chain: B2 chain with K42M, P54S
B4: A10: phage clone, domain 1 mutant D8G (protein)
chain: B2 chain with D8G, K42M
B5: 2D12: phage clone, domain 1 mutant F45L (protein)
chain: B2 chain with K42M, F45L
B6: 2D4: phage clone, domain 1 mutant M42T (protein)
chain: B2 chain with K42T
B7: SC3: phage clone, domain 1 mutant F45S (protein)
chain: B2 chain with K42M, F45S
B8: SH1: phage clone, domain 1 mutant K33E (protein)
chain: B2 chain with K33E, K42M
B9: SE3: phage clone, domain 1 mutant T20I (protein)
chain: B2 chain with T20I, K42M
B10: 4G1: phage clone, domain 1 mutant S31P (protein)
chain: B2 chain with S31P, K42M
B11: 3F6: phage clone, domain 1 mutant K44E (protein)
chain: B2 chain with K42M, K44E
B12: 3B4: phage clone, domain 1 mutant S38T (protein)
chain: B2 chain with S38T, K42M
B13: 4B12: phage clone, domain 1 mutant T50P (protein)
chain: B2 chain with K42M, T50P

system: rabbit anti-human β2GPI; experiment: Micropanning of mutant domain 1 phage, rabbit antibody; type: binding; parameters: key: 0 (<10 colonies) to 4+ (confluent) semiquantitative colony score; conditions: Table 7A, first (or only) value
Procedure: Error prone PCR was carried out as follows. Domain 1 of human β2GPI was amplified by PCR under conditions that enhance the error rate of Taq polymerase. The primers were such that amino acids 1-64 were amplified. A Sfc 1 restriction site was incorporated as part of amino acid 1. At the 3′ end a Sal 1 restriction site was incorporated after amino acid 64. The PCR reaction was done as described by Leung et al. (1989) Technique 1:11, using 0.25 mM MnCl2. The PCR product was digested with Sfc 1 and Sal 1 and cloned into fd-tet-DOG2 that had been digested with Apal 1 and Sal 1. This positions domain 1 at the N-terminus of pill immediately after the pill signal sequence. The ligation reaction was electroporated in E. coli K91. Phage were harvested and titered by standard methods. Resulting phage clones were assayed using a micropanning technique.
Immulon type 2 plates were coated with protein G. Protein G was prepared at 5 μg/mL in 0.1 M NaHCO3 and 100 μL per well was added to the wells of microtitration plates and incubated overnight at 4° C. After discarding excess protein G solution from plates, each well was blocked with 200 μL 2YT for 1 hour at RT with agitation on an oscillating platform. Tris-buffered saline, pH 7.4/0.5% Tween 20 (TBS/Tween), was used with an automatic plate washer to wash the wells 4 times with 200 μL. One hundred μL human β2GPI-dependent antiphospholipid 6626, 6501, 6701, rabbit β2GPI-dependent antiphospholipid, or control normal IgG, diluted to 2.5 μg/mL with 2YT, was added to washed wells. The plate was incubated for 1 hour at room temperature on a rotating platform.
Phage to be tested by micropanning were obtained from the agar plates generated by biopanning. Each clone to be tested was transferred using sterile toothpicks to a separate well of a round-bottom 96-well microtitration plate (Corning, Corning, N.Y.) containing 200 μL 2YT/Tet per well and cultured overnight at 30° C. Following overnight incubation, phage cultures were centrifuged using a microtitration plate holder at 1300×g for 10 minutes at room temperature. Supernatants constituted the source of “neat” phage. The neat phage were diluted 1: 100-1:1000 and 100 μL was added to the plate containing protein G-bound β2GPI-dependent antiphospholipid antibody-6501 and normal IgG prepared as described above. The incubation of dilute phage with aPL antibody or control IgG was carried out for 2 hours at room temperature on a flat rotator. After 9 washes with TBS/Tween in an automated plate washer, the IgG-bound phage was eluted with 20 μL of 0.2 N HCl-glycine/0.1% BSA, pH 2.2. The elution incubation continued for 10 minutes at RT, during which time a new Corning microtitration plate was prepared containing 20 μL of freshly starved E. coli per well and kept chilled. One hundred forty μL of 29 mM Tris was added to the plate containing the phage eluates in order to neutralize the pH, following which 20 μL of phage suspension was transferred from each well to the corresponding well in the plate containing starved E. coli. After a 10 minute incubation at 37° C., 200 μL 2YT was added and incubation carried out an additional 30 minutes at 37° C. Using multichannel pipettors, 8 μL from each well was spotted on a large 2YT/Tet agar plate while retaining the original 8×12 well pattern and orientation from the last microtitration plate. After allowing the spots to dry for 30 minutes, the plate was incubated overnight at 30° C. The following day, colonies were semiquantitatively scored from 0 to 4+, with 0 symbolizing <10 colonies; 1+=10-30; 2+=30 colonies to 70% confluent; 3+=70%-90% confluent; 4+=confluent.
For Table 7A, the rabbit anti-human β2GPI was performed on two separate occasions. Mutations are listed with the original amino acid, the position number, and the identity of the amino acid at that position in the mutant. […] Non-mutated domain 1 have a score of 3+, while domain 5 phage gave a score of −. Silent mutations are not shown. […]

Molecule	μpan score
B1	2
B2	3
B3	3
B4	2, 2
B5	3
B6	3

same assay, conditions: Table 7A, second value (second occasion)

Molecule	μpan score
B2	4
B4	2, 2

same assay, conditions: Table 7B, 1st column

Molecule	Micropan score
B1	4
B2	4
B3	2
B7	4
B5	4
B6	4
B8	4
B9	4

same assay, conditions: Table 7B, 2nd column

Molecule	Micropan score
B1	4
B2	4
B3	4
B7	4
B5	4
B6	4
B8	4
B9	4

same assay, conditions: Table 7B, 3rd column

Molecule	Micropan score
B1	4
B2	4
B3	4
B7	4
B5	4
B6	4
B8	4
B9	4

same assay, conditions: Table 7B, 4th column

Molecule	Micropan score
B1	4
B2	4
B3	4
B7	4
B5	4
B6	4
B8	4
B9	4

same assay, conditions: Table 7B, 5th column

Molecule	Micropan score
B10	4
B11	4
B12	4
B13	4

system: human β2GPI-dependent antiphospholipid antibody; experiment: Micropanning of mutant domain 1 phage, patient antibodies; type: binding; conditions: Table 7A, antibody 6501

Molecule	μpan score
B1	3
B2	3
B3	1
B4	2
B5	3
B6	2

same assay, conditions: Table 7A, antibody 6626

Molecule	μpan score
B1	2
B2	3
B3	1
B4	2
B5	2
B6	1

same assay, conditions: Table 7A, antibody 6701

Molecule	μpan score
B1	3
B2	3
B3	1
B4	2
B5	2
B6	3

same assay, conditions: Table 7B, antibody 6226

Molecule	Micropan score
B1	4
B2	4
B3	2
B7	3
B5	4
B6	3
B8	4
B10	2
B9	3
B11	0 (0 symbolizing <10 colonies)
B12	2
B13	1

same assay, conditions: Table 7B, antibody 6501

Molecule	Micropan score
B1	4
B2	4
B3	2
B7	1
B5	4
B6	4
B8	4
B10	2
B9	3
B11	0 (0 symbolizing <10 colonies)
B12	3
B13	1

same assay, conditions: Table 7B, antibody 6632

Molecule	Micropan score
B1	3
B2	4
B3	3
B7	4
B5	4
B6	4
B8	4
B10	2
B9	3
B11	0 (0 symbolizing <10 colonies)
B12	2
B13	1

same assay, conditions: Table 7B, antibody 6644

Molecule	Micropan score
B1	4
B2	4
B3	3
B7	4
B5	4
B6	4
B8	4
B10	2
B9	3
B11	1
B12	3
B13	1

same assay, conditions: Table 7B, antibody 6701

Molecule	Micropan score
B1	4
B2	4
B3	2
B7	0 (0 symbolizing <10 colonies)
B5	2
B6	4
B8	4
B10	2
B9	3
B11	0 (0 symbolizing <10 colonies)
B12	2
B13	1

same assay, conditions: Table 7B, antibody 7008

Molecule	Micropan score
B1	4
B2	4
B3	3
B7	4
B5	4
B6	4
B8	4
B10	2
B9	4
B11	2
B12	2
B13	1
